According to paper PMC5567082:

Molecular target: polyhistidine-tagged canine PD-L1 protein (cPD-L1-His) (dog)
Experiment: SPR; Biacore X100, CM5 chip, His Capture Kit: cPD-L1-His captured by immobilised anti-histidine antibody (approximately 400 RU); cPD-1-Ig or cCD80-Ig flowed over; HBS-EP+ running and dilution buffer; two state reaction model

| Kd [µM] | Substance |
| --- | --- |
| 0.0254 | recombinant canine PD-1 protein (cPD-1-Ig) (Fc fusion) |
| 0.0243 | recombinant canine CD80 protein fused to rabbit IgG Fc (cCD80-Ig) (Fc fusion) |
